What was measured:
Experiment in all cases: Luminex bead assay, antibody supernatant on modified RBD.mmH microspheres
[1] = biological target: MOD14 - SARS-CoV-2 Spike Protein (RBD)(R319-F541).mmH (SARS-CoV-2)
[2] = biological target: MOD9 - SARS-CoV-2 Spike Protein (RBD)(R319-F541).mmH (SARS-CoV-2)
[3] = biological target: MOD8 - SARS-CoV-2 Spike Protein (RBD)(R319-F541).mmH (SARS-CoV-2)
[4] = biological target: MOD13 - SARS-CoV-2 Spike Protein (RBD)(R319-F541).mmH (SARS-CoV-2)
[5] = biological target: MOD12 - SARS-CoV-2 Spike Protein (RBD)(R319-F541).mmH (SARS-CoV-2)
[6] = biological target: MOD11 - SARS-CoV-2 Spike Protein (RBD)(R319-F541).mmH (SARS-CoV-2)
[7] = biological target: MOD15 - SARS-CoV-2 Spike Protein (RBD)(R319-F541).mmH (SARS-CoV-2)
[8] = biological target: MOD10 - SARS-CoV-2 Spike Protein (RBD)(R319-F541).mmH (SARS-CoV-2)

mAb10936 (antibody)
Binding signal (MFI) [1]: 28500 MFI | Binding signal (MFI) [2]: 29100 MFI | Binding signal (MFI) [3]: 2920 MFI | Binding signal (MFI) [4]: 29200 MFI | Binding signal (MFI) [5]: 31700 MFI | Binding signal (MFI) [6]: 30800 MFI | Binding signal (MFI) [7]: 21700 MFI | Binding signal (MFI) [8]: 28800 MFI

Reference: patent publication US20220356230A1
